Reference: patent US20180051253

Target: T1, Nuclear Respiratory Factor 1 (NRF1), Q16656
T1 chain: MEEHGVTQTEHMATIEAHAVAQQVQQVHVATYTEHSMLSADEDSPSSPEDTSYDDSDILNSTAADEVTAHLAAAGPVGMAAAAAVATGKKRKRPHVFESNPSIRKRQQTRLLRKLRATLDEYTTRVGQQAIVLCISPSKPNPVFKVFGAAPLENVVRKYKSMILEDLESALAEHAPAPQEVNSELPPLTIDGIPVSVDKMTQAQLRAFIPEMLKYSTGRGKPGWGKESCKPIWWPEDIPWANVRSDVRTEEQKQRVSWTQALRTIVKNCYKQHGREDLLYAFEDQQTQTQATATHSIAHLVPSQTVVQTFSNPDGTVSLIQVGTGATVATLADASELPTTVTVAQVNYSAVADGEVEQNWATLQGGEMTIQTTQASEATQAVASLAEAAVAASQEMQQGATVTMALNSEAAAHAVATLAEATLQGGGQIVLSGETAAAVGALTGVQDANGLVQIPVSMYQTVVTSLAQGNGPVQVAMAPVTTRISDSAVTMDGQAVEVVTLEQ

B1: endogenous SIRT7 (protein)
chain: MAAGGLSRSERKAAERVRRLREEQQRERLRQVSRILRKAAAERSAEEGRLLAESADLVTELQGRSRRREGLKRRQEEVCDDPEELRGKVRELASAVRNAKYLVVYTGAGISTAASIPDYRGPNGVWTLLQKGRSVSAADLSEAEPTLTHMSITRLHEQKLVQHVVSQNCDGLHLRSGLPRTAISELHGNMYIEVCTSCVPNREYVRVFDVTERTALHRHQTGRTCHKCGTQLRDTIVHFGERGTLGQPLNWEAATEAASRADTILCLGSSLKVLKKYPRLWCMTKPPSRRPKLYIVNLQWTPKDDWAALKLHGKCDDVMRLLMAELGLEIPAYSRWQDPIFSLATPLRAGEEGSHSRKSLCRSREEAPPGDRGAPLSSAPILGGWFGRGCTKRTKRKKVT
Q: How did the “SIRT7 occupancy at gene promoters (ChIP-qPCR) after NRF1 siRNA” value turn out when B1 was run?
A: Its value is “NRF1 knockdown (KD) using siRNA reduced SIRT7 occupancy at the promoters of mRPs and mTFs, but not RPS20”.
